# According to patent US20230151068A1:
# Molecular target: biotinylated His-Avi-TEAD (194-411) (UniProt P28347)
# Assay: SSM screen, enrichment after two rounds of sorting
row,Binder,enrichment score
1,GSPDEYIERAKECCKKGDIGCCLRYFEESGDPNVMLICLFCP (designed binder) [Q18G variant of SEQ ID NO: 1],-2.03
2,GSPDEYIERAKECCKKRDIQCCLRYFEESGDPNVMLICLFCP (designed binder) [G15R variant of SEQ ID NO: 1],0.91
3,GSPDEYIERAKECCKSGDIQCCLRYFEESGDPNVMLICLFCP (designed binder) [K14S variant of SEQ ID NO: 1],1.61
4,GSPDEYIERAKECCKEGDIQCCLRYFEESGDPNVMLICLFCP (designed binder) [K14E variant of SEQ ID NO: 1],1
5,GSPDEYIERAKECCKHGDIQCCLRYFEESGDPNVMLICLFCP (designed binder) [K14H variant of SEQ ID NO: 1],0.53
6,GSPDEYIERAKECCSKGDIQCCLRYFEESGDPNVMLICLFCP (designed binder) [K13S variant of SEQ ID NO: 1],1.43
7,GSPDEYIERAKECCKKGQIQCCLRYFEESGDPNVMLICLFCP (designed binder) [D16Q variant of SEQ ID NO: 1],-3.47
8,GSPDEYIERAKECCKKGSIQCCLRYFEESGDPNVMLICLFCP (designed binder) [D16S variant of SEQ ID NO: 1],-2.71
9,GSPDEYIERAKECCKKKDIQCCLRYFEESGDPNVMLICLFCP (designed binder) [G15K variant of SEQ ID NO: 1],4.43
10,GSPDEYIERAKECCKKGTIQCCLRYFEESGDPNVMLICLFCP (designed binder) [D16T variant of SEQ ID NO: 1],-10
11,GSPDEYIERAKECCKKGDIKCCLRYFEESGDPNVMLICLFCP (designed binder) [Q18K variant of SEQ ID NO: 1],-1.54
12,GSPDEYIERAKECCKKGDIRCCLRYFEESGDPNVMLICLFCP (designed binder) [Q18R variant of SEQ ID NO: 1],-3.67
13,GSPDEYIERAKECCKKGDMQCCLRYFEESGDPNVMLICLFCP (designed binder) [I17M variant of SEQ ID NO: 1],-2.95
14,GSPDEYIERAKECCKKGDRQCCLRYFEESGDPNVMLICLFCP (designed binder) [I17R variant of SEQ ID NO: 1],0.46
15,GSPDEYIERAKECCEKGDIQCCLRYFEESGDPNVMLICLFCP (designed binder) [K13E variant of SEQ ID NO: 1],-0.1
16,GSPDEYIERAKECCKQGDIQCCLRYFEESGDPNVMLICLFCP (designed binder) [K14Q variant of SEQ ID NO: 1],0.17
17,GSPDEYIERAKECCKKGHIQCCLRYFEESGDPNVMLICLFCP (designed binder) [D16H variant of SEQ ID NO: 1],-4.55
18,GSPDEYIERAKECCDKGDIQCCLRYFEESGDPNVMLICLFCP (designed binder) [K13D variant of SEQ ID NO: 1],0.43
19,GSPDEYIERAKECCTKGDIQCCLRYFEESGDPNVMLICLFCP (designed binder) [K13T variant of SEQ ID NO: 1],1.49

row,Binder,enrichment score
1,GSPDEYIERAKECCKKNDIQCCLRYFEESGDPNVMLICLFCP (designed binder) [G15N variant of SEQ ID NO: 1],3.06
2,GSPDEYIERAKECCMKGDIQCCLRYFEESGDPNVMLICLFCP (designed binder) [K13M variant of SEQ ID NO: 1],-0.4
3,GSPDEYIERAKECCKKEDIQCCLRYFEESGDPNVMLICLFCP (designed binder) [G15E variant of SEQ ID NO: 1],1.99
4,GSPDEYIERAKECCKKGNIQCCLRYFEESGDPNVMLICLFCP (designed binder) [D16N variant of SEQ ID NO: 1],-2.7
5,GSPDEYIERAKECCKKGMIQCCLRYFEESGDPNVMLICLFCP (designed binder) [D16M variant of SEQ ID NO: 1],-4.12
6,GSPDEYIERAKECCKKGDQQCCLRYFEESGDPNVMLICLFCP (designed binder) [I17Q variant of SEQ ID NO: 1],-3.1
7,GSPDEYIERAKECCKKDDIQCCLRYFEESGDPNVMLICLFCP (designed binder) [G15D variant of SEQ ID NO: 1],-0.26
8,GSPDEYIERAKECCKKGDKQCCLRYFEESGDPNVMLICLFCP (designed binder) [I17K variant of SEQ ID NO: 1],-4.53
9,GSPDEYIERAKECCKDGDIQCCLRYFEESGDPNVMLICLFCP (designed binder) [K14D variant of SEQ ID NO: 1],1.27
10,GSPDEYIERAKECCKKGKIQCCLRYFEESGDPNVMLICLFCP (designed binder) [D16K variant of SEQ ID NO: 1],-6.95
11,GSPDEYIERAKECCKKGRIQCCLRYFEESGDPNVMLICLFCP (designed binder) [D16R variant of SEQ ID NO: 1],-5.59
12,GSPDEYIERAKECCKKGDDQCCLRYFEESGDPNVMLICLFCP (designed binder) [I17D variant of SEQ ID NO: 1],-9.42
13,GSPDEYIERAKECCQKGDIQCCLRYFEESGDPNVMLICLFCP (designed binder) [K13Q variant of SEQ ID NO: 1],2.23
14,GSPDEYIERAKECCKRGDIQCCLRYFEESGDPNVMLICLFCP (designed binder) [K14R variant of SEQ ID NO: 1],-1.06
15,GSPDEYIERAKECCKKGDINCCLRYFEESGDPNVMLICLFCP (designed binder) [Q18N variant of SEQ ID NO: 1],-0.16
16,GSPDEYIERAKECCKKGEIQCCLRYFEESGDPNVMLICLFCP (designed binder) [D16E variant of SEQ ID NO: 1],-3.6
17,GSPDEYIERAKECCKKGDISCCLRYFEESGDPNVMLICLFCP (designed binder) [Q18S variant of SEQ ID NO: 1],-1.25
18,GSPDEYIERAKECCKKGDIECCLRYFEESGDPNVMLICLFCP (designed binder) [Q18E variant of SEQ ID NO: 1],-0.84
19,GSPDEYIERAKECCKKGDIHCCLRYFEESGDPNVMLICLFCP (designed binder) [Q18H variant of SEQ ID NO: 1],-4.39

row,Binder,enrichment score
1,GSPDEYIERAKECCKKSDIQCCLRYFEESGDPNVMLICLFCP (designed binder) [G15S variant of SEQ ID NO: 1],2.37
2,GSPDEYIERAKECCKTGDIQCCLRYFEESGDPNVMLICLFCP (designed binder) [K14T variant of SEQ ID NO: 1],3.18
3,GSPDEYIERAKECCKKGDIDCCLRYFEESGDPNVMLICLFCP (designed binder) [Q18D variant of SEQ ID NO: 1],-0.19
4,GSPDEYIERAKECCKKGDTQCCLRYFEESGDPNVMLICLFCP (designed binder) [I17T variant of SEQ ID NO: 1],2.21
5,GSPDEYIERAKECCRKGDIQCCLRYFEESGDPNVMLICLFCP (designed binder) [K13R variant of SEQ ID NO: 1],-0.81
6,GSPDEYIERAKECCKKMDIQCCLRYFEESGDPNVMLICLFCP (designed binder) [G15M variant of SEQ ID NO: 1],1.64
7,GSPDEYIERAKECCKKHDIQCCLRYFEESGDPNVMLICLFCP (designed binder) [G15H variant of SEQ ID NO: 1],3.18
8,GSPDEYIERAKECCKKGDSQCCLRYFEESGDPNVMLICLFCP (designed binder) [I17S variant of SEQ ID NO: 1],-2.1
9,GSPDEYIERAKECCKKTDIQCCLRYFEESGDPNVMLICLFCP (designed binder) [G15T variant of SEQ ID NO: 1],2.65
10,GSPDEYIERAKECCKMGDIQCCLRYFEESGDPNVMLICLFCP (designed binder) [K14M variant of SEQ ID NO: 1],-0.92
11,GSPDEYIERAKECCKKGDHQCCLRYFEESGDPNVMLICLFCP (designed binder) [I17H variant of SEQ ID NO: 1],-3.33
12,GSPDEYIERAKECCNKGDIQCCLRYFEESGDPNVMLICLFCP (designed binder) [K13N variant of SEQ ID NO: 1],0.6
13,GSPDEYIERAKECCKNGDIQCCLRYFEESGDPNVMLICLFCP (designed binder) [K14N variant of SEQ ID NO: 1],1.51
14,GSPDEYIERAKECCKKGDEQCCLRYFEESGDPNVMLICLFCP (designed binder) [I17E variant of SEQ ID NO: 1],-0.3
15,GSPDEYIERAKECCKKGDIMCCLRYFEESGDPNVMLICLFCP (designed binder) [Q18M variant of SEQ ID NO: 1],-9.52
16,GSPDEYIERAKECCKKGDNQCCLRYFEESGDPNVMLICLFCP (designed binder) [I17N variant of SEQ ID NO: 1],0.47
17,GSPDEYIERAKECCHKGDIQCCLRYFEESGDPNVMLICLFCP (designed binder) [K13H variant of SEQ ID NO: 1],-0.44
18,GSPDEYIERAKECCKKQDIQCCLRYFEESGDPNVMLICLFCP (designed binder) [G15Q variant of SEQ ID NO: 1],2.5
